In the DeepSol protein solubility set:

Assay: soluble on expression in E. coli; label from the status in PepcDB or PDB records
With “PASQTAANNLGGALNFSVENRTVKRIKFRYNVAKPITTEGLSKLSKGLGEAFLDNTTKAKLAELADPLNARYTGKKPDEVIQAQLDGLEELFADIPPPKDNDKQYKALRDLKRAAVEHRASANKHSVMDNARFETSKTNLSGLSSESILTKIMSSVRDASAPGNATRVAEFMRQDPKLRAMLKEMEGSIGTLARVRLEPKDSLVDKIDEGSLNGTMTQSDLSSMLEDRNEMRIKRLVVFHTATQAENFTSPTPLVSYNSGANVSVTKTLGRINFVYGADQDKPIGYTFDGELSRPSASLKEAAGDLKKEGFELKS” the “soluble on expression in E. coli” value was “not soluble”.
In the case of “SLAQTQLIQSEKMSSLGQLIAGVAHEINNPVNFIYGNLRYVAEYAQDLLHLLEKYQKFLPVTPPELESELDNIDLEFIIQDLPKLLDSMKLGTGRIVEIVQSLKNFSRHDEAEMKAVNIHDGIDGTLMILHHRLKAAIRRPKIEIVKDYAKLPLIECYPGKLNQVFMNILANAIDALEEGMGNEEIPPPTGQITIRTEVLDNQWVVIRIADNGPGMKEEVIRRIYDPFFTTKDVGKGTGLGMAISYQIVVDKHGGMLKCRSQPGEGTEFWIQIPVNCALADAAEEG”, the “soluble on expression in E. coli” value is reported as “not soluble”.
In the case of “MGSDKIHHHHHHKSTDYELKYSYAKKYFNAKQYSKSATLLDELVTIFKGTAYAEESLYLLAQSYYGQKDYQTASQYFETYYTTYPKGEFTELSRFYSGYGLYLDSPDPRLDQSQTYKAIEQLQLYLEYYPQSERAEEAQNIMFELQEKLAYKELMATRLYFNLGTYMGNNFQSCVITAQNALKNYPYSKYREEFMFLIIRAKYELALVSVEEKLQGRYRDVVDEYYNYMNEYPEGNYVKQVTKFYDYASKRITDAY”, the “soluble on expression in E. coli” value is reported as “not soluble”.
With “MTEIYEQAKHSLQGEDFSSFNYLFAVNKLLSNPVSYDLGRDLIVRALDSRERFSEHTTILKNMVRKSGLFPYLKKEFTSLTPDDLRVLELYRTPFSDGYVFHSMQFHIFDLLKSGQNVVLSAPTSMGKSAIVDSLLGMGTLKRLVLVVPTVALADETRRRLQERFGDRYQIIHHSSQVCHSDQAVYVLTQERVNERDDIVDIDLFVIDEFYKLAFRQLKSGDIDHQDERVIELNIALSKLLKVSRQFYLTGPFVNSIRGLEKLGYPHTFVSTDFNTVALDVKTFGIKANDDKAKLKALGEIAHACVDATIIYCKSPTVAGLVARELIRLGHGTPTENPHVDWVSEEFDADWDYTVALRNGIGLHFGALPRALQQYTADQFNAGKLRFLLCTSTIIEGVNTIAKNVVIYDNRDGTRSIDKFTHGNIKGRAGRMGVHFVGKIFCLEEIPEDNLNQEVDIPLGIQGIDTPINLLASVQPDHLSEFSQDRFDEVFINDRVSIDLVKKHSYFRVEQFEMLQSMFEMMDDNEFSSLVFHWTPATNFLKTFAKIIARLVPHTFSRNGVPVKPTDVMIAKLAGYLSAESYSEYLKNQIDYARQWISEGEKRTLSIALNNDLKLITNTFGYTLPKVLSLMEDVVKHHAVKRGIRSKVDYTHVKLAFESFHLPPGVNALEEIGIPIQTLHRLVDLLEFSDEADVDELSQYLRDTQDIWSRSIGYVDQMFIRRALGIRRH” the “soluble on expression in E. coli” value was “not soluble”.
In the case of “MKSILEQLSSITVVVADTGDLDAIKKFQPRDATTNPSLILAAAKNPDYIKLIDQALESSRKSLPAGFSESELIKETIDQVSVFFGKEILNLISGRVSTEVDARLSFDTEATVTKARKLINHYKSFGINKERILIKIASTWEGIKAAEILEKEGIKCNLTLLFNFCQAVACANAKITLISPFVGRILDWHKAKTGKDNFAGCEDPGVISVTKIYNYFKEKGFKTEVMGASFRNIDEIKELAGCDLLTIAPKFLDELNREEGELIKKLDEDTQSQSSIDYKFDEKDFRLSMLEDQMASEKLSEGITGFSKAIEELEELLLKRLSEINNQKLISTT”, the “soluble on expression in E. coli” value is reported as “not soluble”.
In the case of “MDRADLRIAVLMGTKDGAPFIDEQLQSLLAQSHPLIDLWISDDGSVDGTVPIIEAWKSRWTKGRVTLVQGPREGFAANFRSMILDRRIDADFYAFSDQDDVWEPDRLESAVQWMQAFGAEPPLMFCSRTATMTETGSLAGHSPLFRRPPSFRNALVQSIAGGNTILLNRAARDLLARASARTGFVSHDWWAYLVVTGAGGVVHYDPRPLVRYRQHAANLVGANVSWAARVSRLGRLFKGEFADWTDLNLAGLAVNRDLLTPDAATCLDLFASGRQGSLFQRLRTLLVSGVYRQTLAGTLGLYLAFVLGRILEHHHHHH”, the “soluble on expression in E. coli” value is reported as “not soluble”.
For “GSHMSSPVNEEENSQRISTLHHQTMPSDLTQDEFTQLSQSIAEFHTYQLGNGRCSSLLAQRIHAPPETVWSVVRRFDRPQIYKHFIKSCNVSEDFEMRVGCTRDVNVISGLPANTSRERLDLLDDDRRVTGFSITGGEHRLRNYKSVTTVHRFEKEEEEERIWTVVLESYVVDVPEGNSEEDTRLFADTVIRLNLQKLASITEAMNRN”, the “soluble on expression in E. coli” value was “soluble”.
With “MTDARPRICILGGGFGGLYTALRLGQLSWEGHTPPEIVLVDQRDRFLFAPFLYELVTEEMQTWEIAPPFVELLAESGVIFRQAEVTAIDFDHQKVLLNDQDKGTESLAFDQLVIALGGQTPLPNLPGLKDYGLGFRTLEDAYKLKQKLKSLEQADAEKIRIAIVGGGYSGVELAAKLGDRLGERGRIRIIERGKEILAMSPEFNRQQAQASLSAKGIWVDTETTVTAITATDVTLQFREQEDVIPVDLVLWTVGTTVSPLIRNLALPHNDQGQLRTNAQLQVEGKTNIFALGDGAEGRDASGQLIPTTAQGAFQQTDYCAWNIWANLTGRPLLPCRYQPLGEMLALGTDGAVLSGLGIKLSGPAALLARRLVYLYRFPTWQHQLTVGLNWLTRPLGDWLKNEPSLEHHHHHH” the “soluble on expression in E. coli” value was “not soluble”.
In the case of “MGSDKIHHHHHHVQTPALIIVTGHPATGKTTLSQALATGLRLPLLSKDAFKEVMFDGLGWSDREWSRRVGATAIMMLYHTAATILQSGQSLIMESNFRVDLDTERMQNLHTIAPFTPIQIRCVASGDVLVERILSRIAQGARHPGHCDDRSPADLELVRSRGDIPPLPLGGPLLTVDTTFPEQIDMNAIVQWVRQHLQSGTAFL”, the “soluble on expression in E. coli” value is reported as “not soluble”.
With “MGSDKIHHHHHHMKIKVVLSGYGTVGREFIKLLHEKCSYIYETYGIELVVSGVLGRNVAIHNEDGLSIHNLLMYGSSSAAIEKYIEYHPEERATDNISGTVLVESTVTNLKDGNPGKQYIKQAIEKQMDIVAISKGALVTNWREINEAAKIANVRIRYSGATAAALPTLDIGQFSLAGCHVKKIEGILNGTTNYILTKMNEEDITFEEALKEAQRKGIAETNPILDVSGSDSACKLLLLTNSLMGTEHMLTDIYIKGIEHVTKQQIRNAKEQNKFIKLIASAYKDQDGKVTLKVEPYEIDKDHPLANVNGTEKGITFFTDTMGQVTTIGGASNPRGAAAAALKDIINLYRKDLSLSNR” the “soluble on expression in E. coli” value was “not soluble”.
For “QERFVHVHKMITTGTIEEKIDVMLESKQTLNDQIIQSENWITELSTQELEEL”, the “soluble on expression in E. coli” value was “soluble”.
In the case of “MGHHHHHHSHMLGSWPARTFHPGACVSRRPSAPWKHTASGKDSPDLRFSEHGVSQEFWAGGLVAVLEMTPSPSPWGTQEDPAGMCSLWVVGWCPCRGAGVRDLVLVHAGVWCKHVCAVQRDACGESRTPAPPRKGGAVTSVLCLFLIKTFPLFSYKFASCKQVHKDPPLVKSGFE”, the “soluble on expression in E. coli” value is reported as “soluble”.
With “MRVRGIYATALVALALKKGYLLSDLSKTMLSRVEVPVSTRPPNITVKHGEESRDEIVIHAFPYEAGERFEADLLEEVGHAAVRRSLLGLRSVVDARAAEGCRAEGPGGVLIIVKGGECPQPGSMVRVTVVRSPPGSDVVEGRVGVELTGLTVRVMHPGSGVRISRHLTSEDAAKALKAVEASGIDLNQFSVHIRSGARLASEGDISDEIRRLAREAERLWREGPGGEPAVLSRGEYLSLVYLPSTAKHVMDGLRTSLYPTVNNHHSLKSWSSEAEGLLTDFAEEGVREGLWGGEAGDLIVRFISSRLVGRTAVVLHRRPDGETIRLGPFRVSSYRPSSGRGGEIVLERTFRSPGVYDGLGLERRPGDRGVTHVYMGDWLTIHEYYDKSGRLLGVYANINTPPEVGFQGLKYLDLLVDVVKRPGEEPETIDQGELEKACRSGLLTDRLCEEAARQAERASGLLQSRYP” the “soluble on expression in E. coli” value was “not soluble”.
With “KLMKVNHAADAAEEGLVSDPLEWTGVRIGPGINGTIAQLPTLAGEEIIATRVVHSKTFHSLAAPNDRLHEGMVLVIHGTPDALERAIAKVGKQQDVPIEDTDLVYSRFTVSSKAVVGRKISDLDTVRSGFIISRLRRGDADVVPEPDDVLHYSDRVRVIAPANRMSEVRRFLGDSERSLADVD” the “soluble on expression in E. coli” value was “not soluble”.
With “AGKTLYGKLWDIHEVARRDDGSSLIYIDRHILHEVTSPQAFEGLRLAGRPLWRVNANIATPDHNVPTTKAERQGSLLSIADTVSRLQVQTLDENCDDFGIFEFKMNDVRQGIVHVIGPEQGATLPGMTVVCGDSHTSTHGAFGALAHGIGTSEVEHVLATQCLVTQKMKN” the “soluble on expression in E. coli” value was “not soluble”.
For “MIQSDLDLFGPQPQRLASHTVLLPGFALAETEALLDALRPVLRAAPFRHMYTPGGLRMAVALTNCGTLGWVSDQHGYRYSPSDPVSGQPWPALPPVLLALASRAAAMAGFDGFVPDACLVNHYLPGTRLSLHQDRDEQDFGQPIVSVSLGLPAVFLFGGLQRADKAQRIALSHGDVLVWGGVDRLRFHGVLPIKPGVHPRLGERRINLTLRKAGALEHHHHHH”, the “soluble on expression in E. coli” value was “not soluble”.
In the case of “MSLALGSYIERRGELETYFDRTAADTWAKLTSDAPVSGIRATVRAGRDEMRNTLLSWLPADMTGTRLLDAGCGTGALSIEAARRGAKIVAIDLSPTLVAVARERLPDDIDPAAIDFRSGDMLDPELGEFDFVVAMDSLIHYLPHDICRMLATLASRTRQSMAVTFAPKTPLLTLMHFVGGFFPRADRAPAIEPISEKTLRGLVAEDPLLAQWQPGRTHRVSSGFYTSQALEMVREGHHHHHH”, the “soluble on expression in E. coli” value is reported as “soluble”.
In the case of “MMKKTPTSTKDSLPNKEMNDLPRLASAVLPLCSQHPGQCGLFPLEKSLDAFAARYRLAEMAEHTLDVQYYIWQDDMSGRLLFSALLAAAKRGVRVRLLLDDNNTPGLDDILRLLDSHPRIEVRLFNPFSFRLLRPLGYITDFSRLNRRMHNKSFTVDGVVTLVGGRNIGDAYFGAGEEPLFSDLDVMAIGPVVEDVADDFARYWYCKSVSPLQQVLDVPEGEMADRIELPASWHNDAMTHRYLRKMESSPFINHLVDGTLPLIWAKTRLLSDDPAKGEGKAKRHSLLPQRLFDIMGSPSERIDIISSYFVPTRAGVAQLLRMVRKGVKIAILTNSLAANDVAVVHAGYARWRKKLLRYGVELYELKPTREQSSTLHDRGITGNSGASLHAKTFSIDGKTVFIGSFNFDPRSTLLNTEMGFVIESETLAQLIDKRFIQSQYDAAWQLRLDRWGRINWVDRHAKKEVILKKEPATSFWKRVMVRLASILPVEWLL”, the “soluble on expression in E. coli” value is reported as “not soluble”.
With “MGSDKIHHHHHHMADNFLSQEEVDALLRGVTNEQEDDTPALDPAGVREYNLATQERIVRGRMPTLEIINERFARLLRIGLFNFLRRTTEVSVGPVKISKYSEFIRNLVVPTNLNLVQMKPLRGTALMVFDPTLVFLIVDNLFGGDGRFHTRVEGRDFTQTEQRIIQRVLAIVFETYAKSWEPVYKLEFEYIRSEMNTQFANIATPNEVVVSTTFNIELGSASGEIHFCFPYSMIEPIRDLLTSPLQGEALGVDKRWVRLMTQQIQSAEVMLIADLAKAEMTLGDILNMKVGDVIPLSISEEIEAKVDNVPVMQCKYGVFNGQYALRVEKLLRSNSSEYVKGEVPDGD” the “soluble on expression in E. coli” value was “not soluble”.
In the case of “MGSDKIHHHHHHARPLSDVLNDVAARFQVRLKYDVDTVGRVLPYADFRIRPYSLEETLTNVLSPFDYKFVKQSDKVYKLKPYEYARRTDADGEKMLAYLSGLYSDKSQWEQRREILRKEVRQRLGLDDMLGKTVKDAKPVLSKIRKFDGYTVQNFALETLPGLYVCGSVYAPRTKGKHALIICPNGHFGQGRYRKDQQQRMATLARMGAVCVDYDLYGWGESALQVGGKAHHTADAHTIQAMNGIWILDYMLANRKDIDPACIGVNGGSGGGTQTVLLTVLDDRFTAAAPVVSLASHFDGGCPCESGKPIQLAGGGTCNAELAALFAPRPMLVVSDGGDWTATVPRLEYPYLQRIYGFYGATDKVSNVHLPQERHDFGPNKRNAVYDFFIDVFGLDRNMLDESKVTIEPEDALKSFGEKGEKLPAGALRYKE”, the “soluble on expression in E. coli” value is reported as “not soluble”.
